Experimental data taken from PMC10524356.

Legend:
[1] = molecular target: HIV-2 capsid (CA) protein carboxyl-terminal domain, CA residues 145-230 (HIV-2 ROD); experiment: crystal structure
[2] = molecular target: HIV-2 Gag polyprotein in immature particles (HIV-2 ROD); experiment: cryo-EM structure

Substance: HIV-2 capsid (CA) protein carboxyl-terminal domain, CA residues 145-230 (domain or fragment)
- stoichiometry N [1]: 2

Substance: HIV-2 Gag polyprotein in immature particles (natural protein)
- stoichiometry N [2]: 6
